Experimental findings from patent publication US20180030136A1 (GlaxoSmithKline, published 2018) are described below.

The target in one assay is T1, Cyno ICOS-Fc (cynomolgus; rabbit).
T1 construct: also called cyno ICOS (rabbit Fc)
The experiment in a line: BIAcore T200, antibody captured on anti-human IgG, ICOS (rabbit Fc) as analyte, 25 C, 1:1 model. How it is done: The binding kinetics affinity of the humanized H2L5 hIgG4PE antibody was determined used the BIAcore T200Anti-human IgG on Fc2 of a CM5 chip Anti-ICOS H2L5 hIgG4PE captured on the surface. Anti-human IgG surface blocked with 0.1 mg/mL hIgG1 control to prevent non-specific binding of rabbit Fc. Human and cyno ICOS (rabbit Fc) passed over the captured antibodies at 256 nM, 64 nM, 16 nM, 4 nM and 1 nM. Buffer alone was used to double reference binding curves. MgCl₂ was used to regenerate surface. Run carried out at 25° C. Data fitted to 1:1 model using T200 evaluation software. Antibody concentration: 2.5 μg/mL
The ICOS binding data was fitted to a 1:1 kinetics model using the T200 data analysis software.
On the technique in general: In SPR one partner is held on a chip, and binding of the other changes the refractive index at the surface.

Another assay concerns the target T2, human ICOS on cells (human, UniProt Q9Y6W8 21-167).
T2 sequence: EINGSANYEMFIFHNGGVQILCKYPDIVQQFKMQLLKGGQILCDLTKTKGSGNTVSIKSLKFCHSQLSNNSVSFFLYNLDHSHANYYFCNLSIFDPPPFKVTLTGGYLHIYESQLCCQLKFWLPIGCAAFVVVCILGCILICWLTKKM
The experiment in a line: cell-based or functional assay.

Another assay deals with T3, cynomolgus ICOS (cynomolgus).
T3 construct: also called cyno ICOS; Biacore cyno
Briefly: Biacore, cyno ICOS.

B1: H2L5 hIgG4PE (antibody)
heavy: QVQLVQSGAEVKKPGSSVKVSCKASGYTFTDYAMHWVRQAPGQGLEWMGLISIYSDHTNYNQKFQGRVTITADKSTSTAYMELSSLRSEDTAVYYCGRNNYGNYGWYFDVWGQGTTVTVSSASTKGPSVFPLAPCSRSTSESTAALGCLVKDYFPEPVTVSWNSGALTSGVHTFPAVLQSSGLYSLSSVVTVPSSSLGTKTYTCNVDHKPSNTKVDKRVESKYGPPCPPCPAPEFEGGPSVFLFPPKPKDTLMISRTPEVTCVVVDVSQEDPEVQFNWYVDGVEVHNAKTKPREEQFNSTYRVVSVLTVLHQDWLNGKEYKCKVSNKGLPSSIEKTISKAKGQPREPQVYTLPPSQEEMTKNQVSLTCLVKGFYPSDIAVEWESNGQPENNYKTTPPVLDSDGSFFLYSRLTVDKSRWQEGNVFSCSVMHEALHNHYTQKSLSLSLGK
light: EIVLTQSPATLSLSPGERATLSCSASSSVSYMHWYQQKPGQAPRLLIYDTSKLASGIPARFSGSGSGTDYTLTISSLEPEDFAVYYCFQGSGYPYTFGQGTKLEIKRTVAAPSVFIFPPSDEQLKSGTASVVCLLNNFYPREAKVQWKVDNALQSGNSQESVTEQDSKDSTYSLSSTLTLSKADYEKHKVYACEVTHQGLSSPVTKSFNRGEC
notes: also called H2L5 IgG4PE; copies: 2 + 2
Turning to B1, in the assay with Cyno ICOS-Fc, the affinity, expressed as Kd, was 0.949 nM; the koff was determined as 0.000371 s⁻¹; the kon was determined as 391000 M⁻¹ s⁻¹. For the same molecule, in the assay with human ICOS on cells, the “EC50 CD8+OX40+, donor 1149M52, 24 hr” value came out at 1.5 µg/mL and the “EC50 IFN-γ, donor 1136F50, 48 hr” value turned out to be 1.5 µg/mL.

B2: ICOS mAb clone 88.2 (antibody, V domains shown)
VH: QVQLQQPGAELVRPGASVKLSCKASGYSFTSYWINWVKQRPGQGLEWIGNIYPSDSYTNYNQMFKDKATLTVDKSSNTAYMQLTSPTSEDSAVYYCTRWNLSYYFDNNYYLDYWGQGTTLTVSS
VL: QAVVTQESALTTSPGETVTLTCRSSTGAVTTSNYANWVQEKPDHLFTGLIGGTNNRAPGVPARFSGSLIGDKAALTITGAQTEDEAIYFCALWYNNHLVFGGGTKLTVL
notes: murine anti-human ICOS mAb
As for B2, the Kd in the assay with cynomolgus ICOS was determined as 23 nM.

B3: ICOS mAb clone 422.2 (antibody, V domains shown)
VH: QVQLQQSGPELVRPGESVKISCMGSGYTFTDYAMHWVKQSHAKSLEWIGLISIYSDHTNYNQKFQGKATMTVDKSSSTAYMELARLTSEDSAIYYCGRNNYGNYGWYFDVWGAGTTVTVSS
VL: ENVLTQSPAIMSASPGEKVTMTCSASSSVSYMHWYQQKSITSPKLWIYDTSKLASGVPGRFSGSGSGNSYSLTISSMEAEDVATYYCFQGSGYPYTFGGGTKLEIKR
notes: murine hybridoma mAb
Turning to B3, the dissociation constant (Kd) with cynomolgus ICOS worked out at 4.46 nM.

In general, Kd refers to the concentration at which binding is half-saturated. The low end stands for tighter binding, the high end for weaker binding. One may read the koff as a measure of how fast the partners let go of each other. Higher therefore signals a short-lived complex. In general, kon refers to the rate constant with which the complex forms. Lower therefore signals slow association.
